Reference: patent US20250276090A1, “Methods and Compositions for Genetically Modifying a Cell” (Intellia Therapeutics, Inc., priority 2022, published 2025)
Strand notation (5' to 3'): a small letter for the sugar, then the base; units joined by * are phosphorothioate-linked, units joined directly phosphodiester-linked; [ ] holds rarer units or linkages, { } end groups; capitals alone tell only the bases. m = 2'-O-methyl; r = 2'-OH (RNA)

Tests used:
Type in all cases: cell-based, human
[1] = system: TRBC1 locus; experiment: NGS percent editing with SpyCas9 and Nme2 base editor, TRBC1 (Example 9); details: TRBC1 BE guide, Day 7
From the text: (§1) Genomic DNA was extracted using QuickExtract™ DNA Extraction Solution (Lucigen, Cat. No. QE09050) according to manufacturer's protocol.
(§2) To quantitatively determine the efficiency of editing at the target location in the genome, deep sequencing was utilized to identify the presence of insertions, deletions, and substitution introduced by gene editing. PCR primers were designed around the target site within the gene of interest (e.g., HLA-A) and the genomic area of interest was amplified. Primer sequence design was done as is standard in the field.
(§3) Additional PCR was performed according to the manufacturer's protocols (Illumina) to add chemistry for sequencing. The amplicons were sequenced on an Illumina MiSeq instrument. The reads were aligned to the human reference genome (e.g., hg38) after eliminating those having low quality scores. Reads that overlapped the target region of interest were re-aligned to the local genome sequence to improve the alignment. Then the number of wild type reads versus the number of reads which contain C-to-T mutations, C-to-A/G mutations or indels was calculated. Insertions and deletions were scored in a 20 bp region centered on the predicted Cas9 cleavage site. Indel percentage is defined as the total number of sequencing reads with one or more base inserted or deleted within the 20 bp scoring region divided by the total number of sequencing reads, including wild type. C-to-T mutations or C-to-A/G mutations were scored in a 40 bp region including 10 bp upstream and 10 bp downstream of the 20 bp sgRNA target sequence. The C-to-T editing percentage is defined as the total number of sequencing reads with either one or more C-to-T mutations within the 40 bp region divided by the total number of sequencing reads, including wild type. The percentage of C-to-A/G mutations are calculated similarly.
(§4) Isolated, cryopreserved T cells were thawed in a water bath and plated at a density of 1×10^6 cells/mL in TCAM media containing CTS OpTmizer T Cell Expansion SFM and T Cell Expansion Supplement (ThermoFisher Cat. A1048501), 1× Penicillin-Streptomycin, 1× Glutamax, 10 mM HEPES, 200 U/mL recombinant human interleukin-2 (Peprotech, Cat. 200-02), 5 ng/mL recombinant human interleukin 7 (Peprotech, Cat. 200-07), and 5 ng/mL recombinant human interleukin 15 (Peprotech, Cat. 200-15) and 2.5% human AB serum (GeminiBio, Cat. 100-512). Technical replicates were prepared using isolated T cells from multiple donors. Data shown is from a selected donor.
(§5) LNPs were generally prepared as described in Example 1. Lipid nanoparticles in this example were prepared with molar ratios of 35 Lipid A: 47.5 cholesterol: 15 DSPC: 2.5 PEG2k-DMG. LNPs were made with a lipid amine to RNA phosphate (N:P) molar ratio of about 6. LNPs were formulated with a single RNA species or coformulated with multiple RNA species as described in Table 32. LNPs were delivered to T cells in TCAM media containing ApoE3 (Peprotech, Cat. 350-02) as described in Table 32.
(§6) On Day 1 (e.g., about 24 hours post thaw) cells were harvested and activated with TransAct™ (1:100 dilution, Miltenyi Biotec). LNPs were applied at the doses listed in Table 32 on Day 3 along with 0.5 uM of Compound 1.
(§7) Beginning on Day 4, cells were split and media refreshed regularly. On Day 7, a portion of cells were harvested for sequencing analysis at TRAC, TRBC1, TRBC2 and CIITA loci. NGS analysis was performed as described in Example 1. Table 33 and FIG. 15 show mean percent editing for these cells.

[2] = system: CIITA locus; experiment: NGS percent editing with SpyCas9 and Nme2 base editor, CIITA (Example 9); details: CIITA BE guide, Day 7
From the text: as §1, §2, §3, §4, §5, §6, §7

[3] = system: AAVS1; experiment: GFP insertion at AAVS1 in T cells with SpyCas9 RNP and gapped AAV templates, flow cytometry (Example 6); details: Template OG, day 7 post-editing
Description: AAVS1 guide RNAs were designed and screened to identify insertion SpyCas9 guides using a series of gapped AAV GFP templates (A, B, C, D, OG) each designed for a subset of the guide RNAs. Insertion efficacy in T cells was examined by assessing GFP expression by flow cytometry. The percentage of T cells positive for green fluorescent protein (“% GFP+”) was assayed by flow cytometry, following AAVS1 editing by mRNA and AAV delivery.
Healthy human donor apheresis was obtained commercially (Hemacare) from two donors (#110042863 and #110040377) and cells were washed and resuspended in MACS Buffer containing 2 mM EDTA and 0.5% Fetal Bovine Serum (FBS) in PBS. Cells were washed twice by centrifugation followed by CD3 negative selection using Easy Sep Human T Cell Isolation Kit (Stemcell, Cat. 100-0695) and separated using Easy Sep Magnets (Stemcell, Cat.18000). T cells were aliquoted and cryopreserved for future use in Cryostor® CS10 (StemCell Technologies Cat. 07930).
AAVS1 guide RNAs were assessed for insertion efficacy in T cells by assessing GFP expression by flow cytometry. The percentage of T cells positive for green fluorescent protein (“% GFP+”) was assayed by flow cytometry, following AAVS1 editing by mRNA and AAV delivery.
AAVS1 targeting sgRNAs corresponding to the flanking homology regions of Gap Templates A, B, C, D, & OG (SEQ ID NOs: 299-303) were removed from their storage plates and denatured for 2 minutes at 95° C. before cooling at room temperature for 10 minutes. RNP mixture of 20 μM sgRNA and 10 μM Cas9-NLS protein (SEQ ID NO: 296) was prepared and incubated at 25° C. for 10 minutes. 2.5 μL of RNP mixture was combined with 250,000 cells in […] P3 electroporation Buffer (Lonza). 22 μL of RNP/cell mix was transferred to the corresponding wells of a Lonza shuttle 96-well electroporation plate. Cells were electroporated in duplicate with the manufacturer's pulse code. T cell media described above without any cytokines was added to the cells immediately post electroporation. T cells were rested for 10 minutes at 37° C. Gap Template AAVs were prepared in 48 well plates (Corning, Cat.353078)) with T cell media described above containing 2× cytokines, 400 U/mL recombinant human interleukin-2 (Peprotech, Cat. 200-02), 10 ng/ml recombinant human interleukin 7 (Peprotech, Cat. 200-07), and 10 ng/ml recombinant human interleukin 15 (Peprotech, Cat. 200-15) cytokines. The multiplicity of infection (MOI) of AAVs was 3×10^^5. AAVs were added to the T cells within 15 minutes post electroporation and incubated for 48 hours at 37° C. AAV-6 vectors encoded AAVS1 Template A, B, C, D or OG. Two days post-electroporation, cells were split 1:2 in 48 well plates replenished with T cell media with 1× cytokines as described above. sgRNAs were tested each with AAV constructs and gapped template.
On day 7 post-editing, cells were phenotyped by flow cytometry to determine GFP expression to confirm integration of AAV at their GAP template site. Briefly, T cells were washed in FACS buffer containing 2 mM EDTA (Invitrogen, Cat.15575020) and 1% FBS in PBS followed by re-suspending in FACS buffer containing 1:10,000 dilution of DAPI (Biolegend, Cat.422801) nuclear stain. Cells were then processed on a Cytoflex flow cytometer (Beckman Coulter) and analyzed using the FlowJo software package. T cells were gated based on size, shape, viability, and GFP expression. Values that were not determined by the flow cytometer were denoted as “ND”. Table 18 and FIGS. 8A-8B show mean percentage of T cells positive for GFP expression.

B1: G028986: TRBC sgRNA for Nme2 Base Editor (nucleic acid)
guide: GUGUCCUACCAGCAAGGGGUCCUGGUUGUAGCUCCCUGAAACCGUUGCUACAAUAAGGCCGUCGAAAGAUGUGCCGCAACGCUCUGCCUUCUGGCAUCGUU
modifications: chemical modifications; listed as RNA; modified_base 1: mod_base = OTHER; note = 2'-O-methyl modified nucleotide with phosphorothioate linkage; modified_base 2: mod_base = OTHER; modified_base 3: mod_base = OTHE
notes: TRBC sgRNA for Nme2 Base Editor
Mean percent editing, C to A/G ([1]; BE mRNA 0.5 ug/mL): 1.0%
Mean percent editing, C to T ([1]; BE mRNA 0.5 ug/mL): 94.4%
Mean percent editing, Indels ([1]; BE mRNA 0.5 ug/mL): 0.3%
Mean percent editing, C to A/G ([1]; BE mRNA 1.0 ug/mL): 0.9%
Mean percent editing, C to T ([1]; BE mRNA 1.0 ug/mL): 93.3%
Mean percent editing, Indels ([1]; BE mRNA 1.0 ug/mL): 1.0%

B2: G026584 (nucleic acid)
guide: UCAAAGUACCCUACAGGAGGACCAGUUGUAGCUCCCUGAAACCGUUGCUACAAUAAGGCCGUCGAAAGAUGUGCCGCAACGCUCUGCCUUCUGGCAUCGUU
modifications: chemical modifications, further chemistry not given here
Mean percent editing, C to A/G ([2]; BE mRNA 0.5 ug/mL): 1.2%
Mean percent editing, C to T ([2]; BE mRNA 0.5 ug/mL): 91.8%
Mean percent editing, Indels ([2]; BE mRNA 0.5 ug/mL): 0.9%
Mean percent editing, C to A/G ([2]; BE mRNA 1.0 ug/mL): 1.4%
Mean percent editing, C to T ([2]; BE mRNA 1.0 ug/mL): 91.6%
Mean percent editing, Indels ([2]; BE mRNA 1.0 ug/mL): 0.6%

B3: G013543: AAVS1 SpyCas9 guide RNA, guide sequence SEQ ID NO: 257, chr19:55115755-55115775 (nucleic acid)
guide: mU*mG*mU*rCrCrCrUrArGrUrGrGrCrCrCrCrArCrUrGrGrUrUrUrUrArGrAmGmCmUmAmGmAmAmAmUmAmGmCrArArGrUrUrArArArArUrArArGrGrCrUrArGrUrCrCrGrUrUrArUrCrAmAmCmUmUmGmAmAmAmAmAmGmUmGmGmCmAmCmCmGmAmGmUmCmGmGmUmGmCmU*mU*mU*mU
Mean percentage of T cells positive for GFP expression ([3]; Donor 1): 65.25%
Mean percentage of T cells positive for GFP expression ([3]; Donor 2): 64.40%
